# Tests used:
# [1] = molecular target: integrin αIIbΔ996β3 (αIIb tail truncated after GFFKR) (UniProt P05106); test: pull-down
# [2] = molecular target: integrin αIIbβ3, wild type (UniProt P05106); test: pull-down
substance,measurement,setting,value
"talin head domain (THD, talin residues 1-433), purified (from UniProt P26039 1-433) (domain or fragment)",Kd,[1],0.206 µM
same,Kd,[2],0.213 µM

# Source: article PMC4107134
